This is an account of results in the nanobody polyreactivity screen of Harvey et al. (2022).

The nature of the data set: yeast display, Sf9 membrane polyspecificity reagent, FACS + sequencing; frameworks hold sequencing errors. In short, it runs like this:
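Galactose-induced (36–48 hours) yeast carrying a synthetic nanobody display library were exposed to 10% biotinylated, detergent-solubilized Sf9 membrane reagent at 4 °C for 1 hour. FACS followed streptavidin microbead enrichment, using low and high (top ~1%) gates for expression (anti-HA) and reagent binding (streptavidin). Colony PCR, MiSeq 2 × 250 sequencing and CDR-length filtering followed. Labels for polyreactivity reflect the gate of origin.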
On to “QVQLVESGGGLVQAGGSLRLSCAASGSTFVSNAMGWYRQAPGKERELVAAISTSGGSTYYADSVKGRFTISRDNAKNTVYLQMNSLKPEDTAVYYCAKLLARGFRIWQDYDYWGQGTEVTVSS”, for which the “polyreactivity (PSR sort gate)” value is “low polyreactivity”. The result for “QVQLVESGGGLVQAGGSLRLSCAASGSTFVSYAMGWYRQAPGKERELVAAISWSGGSTYYADSVKGRFTISRDNAKNTVYLQMNSLKTEDTAVYYCAAELDWWYDYWGQGTQVTVSS” reads “high polyreactivity”; that for “QVQLVESGGGLVQAGGSLRLSCAASGSTFVSYAMGWYRQAPGKERELVAAITWRGDSTYYADSVKGRFTISRDNAKNTVYLQMNSLKPEDTAVYYCAADGRSWRYYSPYYYWGQGTQVTVSS”, “low polyreactivity”; that for “QVQLVESGGGLVQAGGSLRLSCAASGSTFVSYAMGWYRQAPGKERELVAAITWRGDSTYYADSVKGRFTLSRDNAKNTVYLQMNSLKPEDTAVYYCAADGRSWRYYSPYYYWGQGTQVTVSS”, “low polyreactivity”.

Turning to “QVQLVESGGGLVQAGGSLRLSCAASGSTFVTYAMGWYRQAPGKEREFVAAISRTGGSTYYADSVKGRFTISRDNAKYTVYLQMNSLKPEDSAVYYCNRVGRGYSHNQYDLGYWGQGTLVTVSS”, the “polyreactivity (PSR sort gate)” value is recorded as “low polyreactivity”. In the case of “QVQLVESGGGLVQAGGSLRLSCAASGSTFVTYTMGWYRQAPGKERELVAAISWSGDTTYADSVKGRFTISRDNAKNTVYLQMNSLKPEDTAVYYCAADDDWSGVEFDYWGQGTQVTVSS”, the “polyreactivity (PSR sort gate)” value was “low polyreactivity”. The value for “QVQLVESGGGLVQAGGSLRLSCAASGSTFVVNAMGCYRQAPGKERELVAAITQSGGSTFYADSVKGRFTISRDNAKNTVYLQMNSLKPEDTAVYYWGQGTQVTVSS” was “low polyreactivity”.

With “QVQLVESGGGLVQAGGSLRLSCAASGSTFVVNAMGWYRQAPGKERELVAAIRSGSSTNYADSVKGRFTISRDNAKNTVYLQMNSLKPEDTAVYYCAARSKYTHSRQSDYWGQGTQVTVSS”, the “polyreactivity (PSR sort gate)” value is recorded as “low polyreactivity”.

Regarding “QVQLVESGGGLVQAGGSLRLSCAASGSTFVWKAMGWYRQAPGKERELVAAISSSGGITYYADSVKGRFTISRDNAKNPVYLQMNSLKPEDTAVYYCAAERDDDWVNYWGQGTQVTVSS”, the “polyreactivity (PSR sort gate)” value was “low polyreactivity”. The result for “QVQLVESGGGLVQAGGSLRLSCAASGSTFVWNAMGGYRQAPGKERELVAAITNDGRTNYADSVKGRFTISRDNAKNTVYLQMNSRKPEDTAVYYCNADGYNSYWWNYYWGQGTQVTVSS” reads “low polyreactivity”.

As for “QVQLVESGGGLVQAGGSLRLSCAASGSTFVWNAMGWYRQAPGKERELVATITLSTGSSYYADSVKGRFTISRDNAKNTVYLQMNSLKPEDTAVYYCNTEIYVDIISDYGYWGQGTQLTVSS”, the “polyreactivity (PSR sort gate)” value is recorded as “low polyreactivity”. As to “QVQLVESGGGLVQAGGSLRLSCAASGSTFVWYAKGWYIQAPGKERELVAAINFGGTTYYADSVKGRFTISRDNAKNTVYLQMNSLKPEETAVYYCATEYDYGSWFPDGWGIFDYWGQGTQVTVSS”, the “polyreactivity (PSR sort gate)” value is “low polyreactivity”. Regarding “QVQLVESGGGLVQAGGSLRLSCAASGSTFVWYAMGRYRLAPGKERELVAVIDWSGGSTSYADSVKGRFTISRDNAKNTVYLQMNSLKPEDTAVYYCNKGSSLFHWYYHWGQGTQVTVSS”, the “polyreactivity (PSR sort gate)” value is recorded as “low polyreactivity”. The result for “QVQLVESGGGLVQAGGSLRLSCAASGSTFVYNAMGWYRQAPGKEREFVAVINWSGGRTYADSVKGRFTISRDNAKNTVYLQMNSLKPEDTAVYYCNAERRTYRVALQYRRYDYWGQGTQVTVSS” reads “high polyreactivity”; that for “QVQLVESGGGLVQAGGSLRLSCAASGSTFVYNAMGWYRQAPGKERELVAAITVIGGRTYYADSVKGRFTISRDNAKNTVYLQMNSLKPEDTAVYYCAAVTYWFWPGMDYWGQGTQVTVSS”, “low polyreactivity”; that for “QVQLVESGGGLVQAGGSLRLSCAASGSTFVYNAMGWYRQAPGKERELVAGISSSGGRTYYADSVKGRFTISRDNAKNTVYLQMNSLKPEDTAVYYCATGYRQGEYDYWGQGTQVTVSS”, “low polyreactivity”. The value for “QVQLVESGGGLVQAGGSLRLSCAASGSTFVYNAMGWYRQAPGKERELVAGISSSGGRTYYADSVKGRFTISRDNAKNTVYLQMNSLKPEDTAVYYCNVVTYRRFDYWGQGTQVTVSS” was “low polyreactivity”. On to “QVQLVESGGGLVQAGGSLRLSCAASGSTFVYNDMGWYRQAPGKEREFVAVINWSGGRTYADSVKGRFTISRDNAKNTVYLQMNSLKPEDTAVYYCNARRRTGYRPAMDYWGQGTQVTVSS”, for which the “polyreactivity (PSR sort gate)” value is reported as “high polyreactivity”.

Consider “QVQLVESGGGLVQAGGSLRLSCAASGSTFVYNTMGWYRQAPGKERELVAAISKSGTNTFYADSVKGRFTISRDNAKNTVYLQMNSLKPEDTAVYYCAVRSVPRWFTELDYWGQGTQVTVSS”, for which the “polyreactivity (PSR sort gate)” value is “low polyreactivity”.

Regarding “QVQLVESGGGLVQAGGSLRLSCAASGSTFVYYAMGWYRQAPGKEREFVAGITRRTGSTYYADSVKGRFTISRDNAKNTVYLQMNSLKPEDTAVYYCAKRDARATPFGYWGQGTQVTVSS”, the “polyreactivity (PSR sort gate)” value was “high polyreactivity”.

For the sequence “QVQLVESGGGLVQAGGSLRLSCAASGSTFVYYAMGWYRQAPGKERELVAAISYSGGRTYYADSVKGRFTISRDNAKNTVYLQMNSLKQEDTAVYYCAAAYVKFYGYSAEYDYWGQGTQVTVSS”, the “polyreactivity (PSR sort gate)” value is “low polyreactivity”.

Turning to “QVQLVESGGGLVQAGGSLRLSCAASGSTFVYYAMGWYRQAPGKERELVATINYNGGSTSYADSVKGRFTISRDNEKNTVYLQMNSLKPEDTAVYYCAKDRYYTWGDYWGQGTQVTVSS”, the “polyreactivity (PSR sort gate)” value is listed as “low polyreactivity”. As to “QVQLVESGGGLVQAGGSLRLSCAASGSTFVYYAMGWYRQAPGKERELVAVISDDGGTYYADSVKGRFSISRDNAKNTVYLQMNSLKPEDTAVYYCAKDYYGGAYYWYNDRSGDYWGQGTQVTVSS”, the “polyreactivity (PSR sort gate)” value is on record as “low polyreactivity”.

On to “QVQLVESGGGLVQAGGSLRLSCAASGSTFVYYAMGWYRQAPGTERELVAAITGSVDSTYYADSVKGRFTISRDNAKNPVYLQMNSLQPEDTAVYYCAADTYSTYWGQGTQVTVSS”, for which the “polyreactivity (PSR sort gate)” value is “low polyreactivity”. The value for “QVQLVESGGGLVQAGGSLRLSCAASGSTFWANAMGWYRQAPGKERELVAAITSTGITYYADSVKGRFTISRDNAKNTVYLQMNSLKPEDTAVYYCNTRGTYRYDYWGQGTQVTVSS” was “low polyreactivity”; that for “QVQLVESGGGLVQAGGSLRLSCAASGSTFWAYALGWYRHAPGKERELVAAITTGGGRTFYADSVMGRFTISRDNGKNTVYLQLNSLIPEDTAVYYCGAVSQSYRMYYWGQGTQVTVSS” was “low polyreactivity”. The result for “QVQLVESGGGLVQAGGSLRLSCAASGSTFWAYVMGWYRQAPGKERELVAAISKSGVRTHYADSVKGRFTISRDNAKNTVYLQMNSLKPEDNAVYYCAAGGVGNLDDYWGQGTQVTVSS” reads “high polyreactivity”; that for “QVQLVESGGGLVQAGGSLRLSCAASGSTFWDYDMGWYRQAPGKERELVASIRNGGSTNYADSVKGRFTISRDNAKNTVYLQMNSLKPEDTAVYYCAADRQPVYPSLGVYWDYGHDYWGQGTQVTVSS”, “low polyreactivity”; that for “QVQLVESGGGLVQAGGSLRLSCAASGSTFWFNAMGWYRQAPGKERELVAAISGRGGNTYYADSVKGRFTISRVNAKNTVYLQMYSLKPEDTAVYYCNAVYLYAYRVRYYYGRYDYWGQGTQVTVSS”, “high polyreactivity”. The value for “QVQLVESGGGLVQAGGSLRLSCAASGSTFWFNAMGWYRQAPGKERELVAAITYRGASTNYADSVKGRFTISRDNAKNTVYLQMNSLKPEDTAVYYCATRPTWRPVPDSDVSTYGYWGQGTQVTVSS” was “low polyreactivity”; that for “QVQLVESGGGLVQAGGSLRLSCAASGSTFWFNDMGWYRQAPGKEREFVAAISSIGGSTYYADSVKGRFTISRDNAKNTVYLQMNSLKPEDTAVYYCAADRLQYYNPYDYWGQGTQVTVSS” was “low polyreactivity”. In the case of “QVQLVESGGGLVQAGGSLRLSCAASGSTFWFYAMGWYRQAPGKERELDAAISNGDSTNYADSVKGRFTISRDNAKNTVYLQMNSLKPEDTAVYYCAADQVYGIGYEYWGQGTQVTVSS”, the “polyreactivity (PSR sort gate)” value was “low polyreactivity”. The result for “QVQLVESGGGLVQAGGSLRLSCAASGSTFWFYAMGWYRQSPGKERELVAVISNSGSTYYADSVKGRFTISRDNAKNTVYLQMNSLKPEDTAVYYCNKDGGGDSYWYDYWGQGTQVTVSS” reads “low polyreactivity”. The value for “QVQLVESGGGLVQAGGSLRLSCAASGSTFWGYAMGWSRQAPGKERELVASITTSDSTYYADSVKGRFTISRDNAKNTVYLQMNSLKPEDSAVYYCAADETWPEYDYWGQGSQVTVSS” was “low polyreactivity”; that for “QVQLVESGGGLVQAGGSLRLSCAASGSTFWGYTMGWYRQAPGKERELVAAISTIGGSTYYADSVKGRFTISRDNAKNTVYLQMNSLKPEDTAVYYCAAEVYTFSGTSWVKDGGYWGQGTQVTVSS” was “low polyreactivity”. The result for “QVQLVESGGGLVQAGGSLRLSCAASGSTFWHNAMGWYRQAPGKERELVAAISYSGGNTNYADSVKGRFTISRDNAKNTVYLQMNSLKPEDTAVYYCNAPDVFPQAIYDYWGQGTQVTVSS” reads “high polyreactivity”; that for “QVQLVESGGGLVQAGGSLRLSCAASGSTFWHYAMGWYRQAPGKERELVASISGRGTSTYYADSVKGRFTLSRDNAKNTVYLQMNSLKPEDTAVYYCAATKWYRAFDYWGQGTQVTVSS”, “low polyreactivity”.

Turning to “QVQLVESGGGLVQAGGSLRLSCAASGSTFWIYAMGWYRQAPGKERELVAAINWSGGNTYYADSVKGRFTISRDNAKNTVYLQMNSLKPEDTAVYYCAAAFYIYGVEGDYWGQGTQVTVSS”, the “polyreactivity (PSR sort gate)” value is reported as “low polyreactivity”.

With “QVQLVESGGGLVQAGGSLRLSCAASGSTFWKYAMGWYRQAPGKERELVASIRSGGSTYYADSVKGRFTISRDNAKNTVYLQMNSLKPEDTAVYYCAAVTHGRYDWGQGTQVTVSS”, the “polyreactivity (PSR sort gate)” value is given as “high polyreactivity”.

Turning to “QVQLVESGGGLVQAGGSLRLSCAASGSTFWPYAMGWYRQAPGKERELVAAIRVIGGSKYYADSVKGRFTISRDNAKNTVYLQMNSLKPEDTAVYYCNAYRPGGARFYARYRYDYWGQGTQVTVSS”, the “polyreactivity (PSR sort gate)” value is reported as “low polyreactivity”. Take “QVQLVESGGGLVQAGGSLRLSCAASGSTFWPYTMGWYRPATGKESELVAAISLSGGSTYYADSVKGRFTISRDNAKNSVYLQMNSLKPEDTAVYYCAAEGGYQNWHYLYEYWGQGTQVTVSS”: the “polyreactivity (PSR sort gate)” value is listed as “low polyreactivity”.
